Experimental data reported in patent publication US20200024322A1 (Eli Lilly, published 2020).

T1: human GIP receptor (human, UniProt P48546 22-466)
T1 construct: whole, on cells; also called hGIPR; hGIP-R
T1 sequence (looked up): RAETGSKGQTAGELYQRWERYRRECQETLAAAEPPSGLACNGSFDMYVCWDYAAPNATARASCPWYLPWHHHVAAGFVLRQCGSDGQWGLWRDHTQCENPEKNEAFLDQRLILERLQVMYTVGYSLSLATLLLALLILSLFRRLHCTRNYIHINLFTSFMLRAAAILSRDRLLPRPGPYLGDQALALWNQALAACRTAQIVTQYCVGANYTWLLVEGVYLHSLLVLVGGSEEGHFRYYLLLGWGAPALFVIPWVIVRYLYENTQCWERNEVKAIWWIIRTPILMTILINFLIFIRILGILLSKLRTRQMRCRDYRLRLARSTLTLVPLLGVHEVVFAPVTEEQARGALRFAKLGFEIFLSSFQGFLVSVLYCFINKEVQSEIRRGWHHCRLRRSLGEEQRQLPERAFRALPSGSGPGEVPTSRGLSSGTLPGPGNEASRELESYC


Columns and labels:
[1] = biological target: T1, human GIP receptor; test: [125I]-GIP competition SPA, hGIPR membranes
[2] = biological target: T2, human GLP-1 receptor (human, UniProt P43220 24-463); test: [125I]-GLP-1 competition SPA, hGLP-1R membranes
T2 construct: whole, on cells; also called hGLP-1R; hGLP1R
Procedure, shortened: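 Kᵢ values are geometric means (SEM) over replicates run on separate days, derived from IC₅₀ of four-parameter curve fits. Buffer: HEPES 25 mM pH 7.4 with CaCl₂ 2.5 mM, MgCl₂ 1 mM, bacitracin 0.1%, TWEEN-20 0.003%, EDTA-free protease inhibitors.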

[3] = biological target: T3, human glucagon receptor (human, UniProt P47871 26-477); test: [125I]-Gcg competition SPA, hGcgR membranes
T3 construct: whole, on cells; also called hGcgR; GcgR
T3 sequence (P47871 26-477): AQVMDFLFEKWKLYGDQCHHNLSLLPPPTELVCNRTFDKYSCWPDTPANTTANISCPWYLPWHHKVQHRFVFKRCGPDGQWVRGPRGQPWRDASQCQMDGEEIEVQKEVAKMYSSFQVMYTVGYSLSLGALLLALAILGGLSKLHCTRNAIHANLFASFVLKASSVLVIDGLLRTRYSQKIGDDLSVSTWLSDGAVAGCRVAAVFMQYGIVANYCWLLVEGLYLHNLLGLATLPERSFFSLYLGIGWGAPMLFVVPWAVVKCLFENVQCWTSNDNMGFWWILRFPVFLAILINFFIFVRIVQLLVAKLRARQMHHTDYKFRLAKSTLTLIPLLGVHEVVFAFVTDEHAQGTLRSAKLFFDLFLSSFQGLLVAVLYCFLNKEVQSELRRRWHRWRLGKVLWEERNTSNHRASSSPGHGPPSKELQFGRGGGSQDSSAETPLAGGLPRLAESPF

Row | Binder | Ki [1] [nM] | Ki [2] [nM] | Ki [3] [nM]
1 | XXEGTFTSDYSIXLDXKAQXEFIEYLIAGGPSSGAPPPS (D-Tyr1; Aib2; αMeL13; Orn16; K17((2-[2-(2-Amino-ethoxy)-ethoxy]-acetyl)2-(γ-Glu)-CO-(CH2)18-CO2H); Aib20; C-terminal NH2) [Example 349] | 0.08 | 1.72 | 
2 | XXEGTFTSDYSIXLDXKAQXEFVEYLIAGGPSSGAPPPS (D-Tyr1; Aib2; αMeL13; Orn16; K17((2-[2-(2-Amino-ethoxy)-ethoxy]-acetyl)2-(γ-Glu)-CO-(CH2)18-CO2H); Aib20; C-terminal NH2) [Example 359] | 0.0874 | 2.59 | 
3 | YXEGTXTSDYSIXLDEKAQXEFIXYLIEGG (Aib2; αMeF(2F)6; αMeL13; K17((2-[2-(2-Amino-ethoxy)-ethoxy]-acetyl)2-(γ-Glu)-CO-(CH2)16-CO2H); Aib20; D-Glu24; C-terminal NH2) [Example 220] | 0.0919 | 2.71 | 377
4 | YXEGTFTSDYSILLDKKAQXAFIEYLIEGGPSSGAPPPS (Aib2; K17((2-[2-(2-Amino-ethoxy)-ethoxy]-acetyl)2-(γ-Glu)-CO-(CH2)16-CO2H); Aib20; C-terminal NH2) [Example 315] | 0.0677 |  | 539
5 | XXEGTFTSDYSIXLDKKAQXAFIXYLIAGGPSSGAPPPS (D-Tyr1; Aib2; αMeL13; K17((2-[2-(2-Amino-ethoxy)-ethoxy]-acetyl)2-(γ-Glu)-CO-(CH2)18-CO2H); Aib20; D-Glu24; C-terminal NH2) [Example 352] | 0.0726 | 3.03 | 
6 | XXEGTFTSDYSIXLDKKAQXAFIXYLIEGGPSSGAPPPS (D-Tyr1; Aib2; αMeL13; K17((2-[2-(2-Amino-ethoxy)-ethoxy]-acetyl)2-(γ-Glu)-CO-(CH2)18-CO2H); Aib20; D-Glu24; C-terminal NH2) [Example 356] | 0.35 | 10.3 | 
7 | YXEGTXTSDYSIXLDEKAQXEFIXYLIEGGPSSGAPPPS (Aib2; αMeF6; αMeL13; K17((2-[2-(2-Amino-ethoxy)-ethoxy]-acetyl)2-(γ-Glu)-CO-(CH2)16-CO2H); Aib20; D-Glu24; C-terminal NH2) [Example 213] | 0.365 | 2.75 | 544
8 | YXEGTXTSDYSIXLDEKAQXEFIXYLIEGGPSSGAPPPS (Aib2; αMeF(2F)6; αMeL13; K17((2-[2-(2-Amino-ethoxy)-ethoxy]-acetyl)2-CO-(CH2)18-CO2H); Aib20; D-Glu24; C-terminal NH2) [Example 215] | 0.0666 | 6.85 | 75.2
9 | YXEGTXTSDYSIXLDXKAQXEFIXYLIEGGPSSGAPPPS (Aib2; αMeF(2F)6; αMeL13; Dap16; K17((2-[2-(2-Amino-ethoxy)-ethoxy]-acetyl)2-(γ-Glu)-CO-(CH2)18-CO2H); Aib20; D-Glu24; C-terminal NH2) [Example 218] | 0.0593 | 2.54 | 270
10 | YXEGTXTSDYSIXLDXKAQXEFIXYLIEGGPSSGAPPPS (Aib2; αMeF(2F)6; αMeL13; Dab16; K17((2-[2-(2-Amino-ethoxy)-ethoxy]-acetyl)2-(γ-Glu)-CO-(CH2)18-CO2H); Aib20; D-Glu24; C-terminal NH2) [Example 217] | 0.0376 | 2.02 | 516
11 | YXEGTXTSDYSIXLDEKAQXEFIXYLIEGGPSSGAPPPS (Aib2; αMeF(2F)6; αMeL13; K17((2-[2-(2-Amino-ethoxy)-ethoxy]-acetyl)2-CO-(CH2)16-CO2H); Aib20; D-Glu24; C-terminal NH2) [Example 214] | 0.0304 | 1.99 | 126
12 | YXEGTXTSDYSIXLDEKAQXEFIXYLIEGGPSSGAPPPS (Aib2; αMeF(2F)6; αMeL13; K17((2-[2-(2-Amino-ethoxy)-ethoxy]-acetyl)2-(εK)-CO-(CH2)18-CO2H); Aib20; D-Glu24; C-terminal NH2) [Example 216] | 0.0559 | 2.34 | 45.2
13 | YXEGTFTSDYSIXLDEKAQXAFIXYLIAGGPSSGAPPPS (Aib2; αMeL13; K17((2-[2-(2-Amino-ethoxy)-ethoxy]-acetyl)2-(γ-Glu)-CO-(CH2)18-CO2H); Aib20; D-Glu24; C-terminal NH2) [Example 343] | 0.0374 | 13.3 | 
14 | YXEGTXTSDYSIXLDKKAQXEFIXYLIEGGPSSGAPPPS (Aib2; αMeF(2F)6; αMeL13; K17((2-[2-(2-Amino-ethoxy)-ethoxy]-acetyl)2-(γ-Glu)-CO-(CH2)16-CO2H); Aib20; D-Glu24; C-terminal NH2) [Example 231] | 0.0394 | 3.03 | 440
15 | YXEGTXTSDYSIXLDKKAQXEFIXYLIEGGPSSGAPPPS (Aib2; αMeF(2F)6; αMeL13; K17((2-[2-(2-Amino-ethoxy)-ethoxy]-acetyl)2-(γ-Glu)-CO-(CH2)18-CO2H); Aib20; D-Glu24; C-terminal NH2) [Example 212] | 0.0978 | 2.76 | 205
16 | YXEGTXTSDYSIXLDHKAQXEFIXYLIEGGPSSGAPPPS (Aib2; αMeF(2F)6; αMeL13; K17((2-[2-(2-Amino-ethoxy)-ethoxy]-acetyl)2-(γ-Glu)-CO-(CH2)18-CO2H); Aib20; D-Glu24; C-terminal NH2) [Example 230] | 0.042 | 4.68 | 494
17 | YXEGTXTSDYSIXLDEKAQXEFIXYLIEGGPSSG (Aib2; αMeF(2F)6; αMeL13; K17((2-[2-(2-Amino-ethoxy)-ethoxy]-acetyl)2-(γ-Glu)-CO-(CH2)16-CO2H); Aib20; D-Glu24; C-terminal NH2) [Example 219] | 0.0689 | 2.01 | 373
18 | YXEGTXTSDYSIXLDKKAQXEFIXYLIEGGPSSG (Aib2; αMeF6; αMeL13; K17((2-[2-(2-Amino-ethoxy)-ethoxy]-acetyl)2-(γ-Glu)-CO-(CH2)18-CO2H); Aib20; D-Glu24; C-terminal NH2) [Example 228] | 0.028 | 2.43 | 182
19 | YXEGTFTSDYSIXLDKKAQXEFIEYLIAGGPSSG (Aib2; αMeL13; K17((2-[2-(2-Amino-ethoxy)-ethoxy]-acetyl)2-(γ-Glu)-CO-(CH2)16-CO2H); Aib20; C-terminal NH2) [Example 306] | 0.0349 | 2.86 | 
